Assays:
[1] = target: T1, HPV16 E1 (Human papillomavirus type 16, UniProt P03114 1-649); assay: fluorescence polarization; 5 mM Mg2+; FP: 20 mM Tris-HCl pH 7.0, 10 mM NaCl, 0.1 mg/ml BSA, 5 mM MgCl2, 1 mM DTT, room temperature, 60 min; 50 nM probe, 0-200 nM protein; conditions: protein: recombinant; tags: His (pET28a, Ni-NTA); Myc (co-IP); chain copies: 6; label: 5' Cy3; single strand
T1 sequence: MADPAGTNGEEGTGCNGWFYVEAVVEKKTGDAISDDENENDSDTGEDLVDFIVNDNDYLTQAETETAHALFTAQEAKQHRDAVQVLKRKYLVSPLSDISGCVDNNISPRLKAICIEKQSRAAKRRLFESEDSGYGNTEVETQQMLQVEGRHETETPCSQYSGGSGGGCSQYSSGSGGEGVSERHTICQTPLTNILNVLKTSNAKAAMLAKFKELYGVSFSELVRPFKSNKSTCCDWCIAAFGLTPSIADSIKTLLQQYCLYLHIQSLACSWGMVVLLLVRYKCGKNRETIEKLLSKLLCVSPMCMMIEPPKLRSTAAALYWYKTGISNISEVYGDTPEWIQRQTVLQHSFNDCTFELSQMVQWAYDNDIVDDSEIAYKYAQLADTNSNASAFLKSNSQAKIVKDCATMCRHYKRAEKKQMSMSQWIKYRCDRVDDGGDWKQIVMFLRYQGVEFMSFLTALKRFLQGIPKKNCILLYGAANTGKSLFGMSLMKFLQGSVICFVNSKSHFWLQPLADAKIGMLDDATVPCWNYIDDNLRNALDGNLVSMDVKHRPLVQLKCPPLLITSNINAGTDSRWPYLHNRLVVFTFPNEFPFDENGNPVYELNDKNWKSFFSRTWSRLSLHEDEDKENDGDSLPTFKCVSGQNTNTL

[2] = target: T2, HPV16 E2 (Human papillomavirus type 16, UniProt P03120 1-365); assay: as above; conditions: protein: recombinant; tags: His (pET28a, Ni-NTA); HA (blots); chain copies: 2; label: 5' Cy3; single strand
T2 sequence (P03120 whole entry): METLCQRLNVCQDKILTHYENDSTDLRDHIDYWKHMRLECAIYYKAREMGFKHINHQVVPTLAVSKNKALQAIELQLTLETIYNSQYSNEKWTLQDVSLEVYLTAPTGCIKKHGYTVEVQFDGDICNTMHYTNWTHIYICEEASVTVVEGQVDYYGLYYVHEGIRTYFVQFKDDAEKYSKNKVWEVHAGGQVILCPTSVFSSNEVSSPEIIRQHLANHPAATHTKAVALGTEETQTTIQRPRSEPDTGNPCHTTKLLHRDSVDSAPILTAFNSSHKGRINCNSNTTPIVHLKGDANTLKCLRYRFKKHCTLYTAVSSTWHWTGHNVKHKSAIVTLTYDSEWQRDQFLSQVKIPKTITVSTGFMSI

[3] = target: T2, HPV16 E2; assay: fluorescence polarization; 5 mM Mg2+; separate experiment alongside E1; FP: 20 mM Tris-HCl pH 7.0, 10 mM NaCl, 0.1 mg/ml BSA, 5 mM MgCl2, 1 mM DTT, room temperature, 60 min; 50 nM probe, 0-200 nM protein; conditions: protein: recombinant; tags: His (pET28a, Ni-NTA); HA (blots); chain copies: 2; label: 5' Cy3; single strand

B1: Cy3-labeled 40-nt ssDNA (FP probe) (ssDNA)
DNA: GCGTCTTTACGGGTGCTTAAAAACAAAAACAAAAACAAAA
[1]
  Kd: 172 ± 88 nM
[2]
  Kd: 24 ± 8 nM
[3]
  Kd: 28 ± 10 nM

From PMC13284460, “HPV16 E2 protein possesses intrinsic helicase activity and sterically hinders E1 function through direct interaction”
